Data published in US20200199241A1 (Chugai, published 2020).
Where a chain is given by its changes, count along the chain named.

B1: IgG1-F672 (antibody)
heavy: QVQLQESGPGLVKPSETLSLTCAVSGHSISHDHAWSWVRQPPGEGLEWIGFISYSGITNYNPSLQGRVTISRDNSKNTLYLQMNSLRAEDTAVYYCARSLARTTAMDYWGEGTLVTVSSASTKGPSVFPLAPSSKSTSGGTAALGCLVKDYFPEPVTVSWNSGALTSGVHTFPAVLQSSGLYSLSSVVTVPSSSLGTQTYICNVNHKPSNTKVDKKVEPKSCDKTHTCPPCPAPELLGGPSVFLFPPKPKDTLYISRTPEVTCVVVDVSHEDPEVKFNWYVDGVEVHMAKTKPREEQYNSTYRVVSVLTPLHQDWLNGKEYKCKVSNKALPAPIEKTISKAKGQPREPQVYTLPPSRDELTKNQVSLTCLVKGFYPSDIAVEWESNGQPENNYKTTPPVLDSDGSFFLYSKLTVDKSRWQQGNVFSCSVMHEALHYHYTQKSLSLSP
light: not shown
notes: EU numbering; copies: 2 + 2
B2: IgG1-F677 (antibody)
heavy: B1 heavy with M288T
light: not shown
notes: EU numbering; copies: 2 + 2
B3: IgG1-F683 (antibody)
heavy: B1 heavy with M288N, K290E
light: not shown
notes: EU numbering; copies: 2 + 2
B4: IgG1-F690 (antibody)
heavy: B1 heavy with M288N, K290N
light: not shown
notes: EU numbering; copies: 2 + 2
B5: IgG1-F713 (antibody)
heavy: B1 heavy with P240D, M288E, T309Q, P310V, Q313A
light: not shown
notes: EU numbering; copies: 2 + 2
B6: IgG1-F674 (antibody)
heavy: B1 heavy with M288Q
light: not shown
notes: EU numbering; copies: 2 + 2
B7: IgG1-F695 (antibody)
heavy: B1 heavy with M288N, K290W
light: not shown
notes: EU numbering; copies: 2 + 2
B8: IgG1-F692 (antibody)
heavy: B1 heavy with M288N, K290Q
light: not shown
notes: EU numbering; copies: 2 + 2
B9: IgG1-F693 (antibody)
heavy: B1 heavy with M288N, K290R
light: not shown
notes: EU numbering; copies: 2 + 2
B10: IgG1-F705 (antibody)
heavy: B1 heavy with M288E, M430I
light: not shown
notes: EU numbering; copies: 2 + 2
B11: IgG1-F724 (antibody)
heavy: B1 heavy with P240D, M288N, P310V, L330E
light: not shown
notes: EU numbering; copies: 2 + 2
B12: IgG1-F710 (antibody)
heavy: B1 heavy with P240D, M288E, T309Q, P310V, Q313A, M430I
light: not shown
notes: EU numbering; copies: 2 + 2
B13: IgG1-F700 (antibody)
heavy: B1 heavy with M288N, L330E
light: not shown
notes: EU numbering; copies: 2 + 2
B14: IgG1-F699 (antibody)
heavy: B1 heavy with S241K, M288E, T309Q, P310V, Q313A
light: not shown
notes: EU numbering; copies: 2 + 2
B15: IgG1-F689 (antibody)
heavy: B1 heavy with M288N, K290M
light: not shown
notes: EU numbering; copies: 2 + 2
B16: IgG1-F733 (antibody)
heavy: B1 heavy with M288N, P310V, L330E
light: not shown
notes: EU numbering; copies: 2 + 2
B17: IgG1-F739 (antibody)
heavy: B1 heavy with M288N, T309P, P310V, Q313A
light: not shown
notes: EU numbering; copies: 2 + 2
B18: IgG1-F729 (antibody)
heavy: B1 heavy with Y254M, M288N, T309A, P310V, Q313A
light: not shown
notes: EU numbering; copies: 2 + 2
B19: IgG1-F708 (antibody)
heavy: B1 heavy with M288E, T309Q, Q313A, M430I
light: not shown
notes: EU numbering; copies: 2 + 2
B20: IgG1-F684 (antibody)
heavy: B1 heavy with M288N, K290F
light: not shown
notes: EU numbering; copies: 2 + 2
B21: IgG1-F681 (antibody)
heavy: B1 heavy with M288N, K290A
light: not shown
notes: EU numbering; copies: 2 + 2
B22: IgG1-F709 (antibody)
heavy: B1 heavy with S241K, M288E, T309Q, P310V, Q313A, M430I
light: not shown
notes: EU numbering; copies: 2 + 2
B23: IgG1-F715 (antibody)
heavy: B1 heavy with P240D, M288N, P310V, N327M
light: not shown
notes: EU numbering; copies: 2 + 2
B24: IgG1-F737 (antibody)
heavy: B1 heavy with S269L, M288N, P310V, L330E
light: not shown
notes: EU numbering; copies: 2 + 2
B25: IgG1-F686 (antibody)
heavy: B1 heavy with M288N, K290H
light: not shown
notes: EU numbering; copies: 2 + 2
B26: IgG1-F707 (antibody)
heavy: B1 heavy with M288E, T309Q, Q313A
light: not shown
notes: EU numbering; copies: 2 + 2
B27: IgG1-F726 (antibody)
heavy: B1 heavy with L237K, P240K, S241K, M288N
light: not shown
notes: EU numbering; copies: 2 + 2
B28: IgG1-F687 (antibody)
heavy: B1 heavy with M288N, K290I
light: not shown
notes: EU numbering; copies: 2 + 2
B29: IgG1-F721 (antibody)
heavy: B1 heavy with M288N, T309Q, Q313A, M430I
light: not shown
notes: EU numbering; copies: 2 + 2
B30: IgG1-F734 (antibody)
heavy: B1 heavy with G238D, M288N, P310V, L330E
light: not shown
notes: EU numbering; copies: 2 + 2
B31: IgG1-F731 (antibody)
heavy: B1 heavy with Y254M, M288N, T309A, P310V, Q313H
light: not shown
notes: EU numbering; copies: 2 + 2
B32: IgG1-F694 (antibody)
heavy: B1 heavy with M288N, K290V
light: not shown
notes: EU numbering; copies: 2 + 2
B33: IgG1-F697 (antibody)
heavy: B1 heavy with S241K, M288N, N327G
light: not shown
notes: EU numbering; copies: 2 + 2
B34: IgG1-F675 (antibody)
heavy: B1 heavy with M288R
light: not shown
notes: EU numbering; copies: 2 + 2
B35: IgG1-F685 (antibody)
heavy: B1 heavy with M288N, K290G
light: not shown
notes: EU numbering; copies: 2 + 2
B36: IgG1-F732 (antibody)
heavy: B1 heavy with Y254M, M288N, T309Q, P310V, Q313H
light: not shown
notes: EU numbering; copies: 2 + 2
B37: IgG1-F719 (antibody)
heavy: B1 heavy with P240D, M288N, P310V, N327G
light: not shown
notes: EU numbering; copies: 2 + 2
B38: IgG1-F673 (antibody)
heavy: B1 heavy with M288P
light: not shown
notes: EU numbering; copies: 2 + 2
B39: IgG1-F711 (antibody)
heavy: B1 heavy with S241K, M288N, T309Q, P310V, Q313A
light: not shown
notes: EU numbering; copies: 2 + 2
B40: IgG1-F676 (antibody)
heavy: B1 heavy with M288S
light: not shown
notes: EU numbering; copies: 2 + 2
B41: IgG1-F723 (antibody)
heavy: B1 heavy with P240D, M288N, P310V, L330D
light: not shown
notes: EU numbering; copies: 2 + 2
B42: IgG1-F738 (antibody)
heavy: B1 heavy with P240D, M288N, T309P, P310V
light: not shown
notes: EU numbering; copies: 2 + 2
B43: IgG1-F714 (antibody)
heavy: B1 heavy with P240D, M288N, P310V, N327S
light: not shown
notes: EU numbering; copies: 2 + 2
B44: IgG1-F706 (antibody)
heavy: B1 heavy with M288E, T309Q, P310V, Q313A, M430I
light: not shown
notes: EU numbering; copies: 2 + 2
B45: IgG1-F682 (antibody)
heavy: B1 heavy with M288N, K290D
light: not shown
notes: EU numbering; copies: 2 + 2
B46: IgG1-F679 (antibody)
heavy: B1 heavy with M288W
light: not shown
notes: EU numbering; copies: 2 + 2
B47: IgG1-F712 (antibody)
heavy: B1 heavy with P240D, M288N, T309Q, P310V, Q313A
light: not shown
notes: EU numbering; copies: 2 + 2
B48: IgG1-F688 (antibody)
heavy: B1 heavy with M288N, K290L
light: not shown
notes: EU numbering; copies: 2 + 2
B49: IgG1-F698 (antibody)
heavy: B1 heavy with M288E, T309Q, P310V, Q313A
light: not shown
notes: EU numbering; copies: 2 + 2
B50: IgG1-F720 (antibody)
heavy: B1 heavy with M288N, T309Q, Q313A
light: not shown
notes: EU numbering; copies: 2 + 2
B51: IgG1-F716 (antibody)
heavy: B1 heavy with P240D, M288N, P310V, N327L
light: not shown
notes: EU numbering; copies: 2 + 2
B52: IgG1-F691 (antibody)
heavy: B1 heavy with M288N, K290P
light: not shown
notes: EU numbering; copies: 2 + 2
B53: IgG1-F680 (antibody)
heavy: B1 heavy with M288Y
light: not shown
notes: EU numbering; copies: 2 + 2
B54: IgG1-F730 (antibody)
heavy: B1 heavy with Y254M, M288N, T309Q, P310V, Q313A
light: not shown
notes: EU numbering; copies: 2 + 2
B55: IgG1-F725 (antibody)
heavy: B1 heavy with L237K, G239R, S241K, M288N
light: not shown
notes: EU numbering; copies: 2 + 2
B56: IgG1-F678 (antibody)
heavy: B1 heavy with M288V
light: not shown
notes: EU numbering; copies: 2 + 2
B57: IgG1-F717 (antibody)
heavy: B1 heavy with P240D, M288N, P310V, N327I
light: not shown
notes: EU numbering; copies: 2 + 2
B58: IgG1-F736 (antibody)
heavy: B1 heavy with S269M, M288N, P310V, L330E
light: not shown
notes: EU numbering; copies: 2 + 2
B59: IgG1-F718 (antibody)
heavy: B1 heavy with P240D, M288N, Q297M, P310V
light: not shown
notes: EU numbering; copies: 2 + 2
B60: IgG1-F696 (antibody)
heavy: B1 heavy with M288N, K290Y
light: not shown
notes: EU numbering; copies: 2 + 2

molecular target: T1, human FcRn (soluble human FcRn complexed with β2-microglobulin) (human, UniProt P61769 21-119, limits assumed); assay: SPR, pH 7.0;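 further: antibodies captured on a Protein L sensor chip with human FcRn injected as analyte, KD calculated from fitted association and dissociation rate constants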
T1 construct: also called hFcRn

| Kd | Binder |
| --- | --- |
| 24 nM | B1 |
| 47 nM | B2 |
| 50 nM | B3 |
| 100 nM | B4 |
| 20 nM | B5 |
| 32 nM | B6 |
| 40 nM | B7 |
| 39 nM | B8 |
| 36 nM | B9 |
| 7.1 nM | B10 |
| 250 nM | B11 |
| 15 nM | B12 |
| 52 nM | B13 |
| 23 nM | B14 |
| 41 nM | B15 |
| 320 nM | B16 |
| 220 nM | B17 |
| 920 nM | B18 |
| 4.1 nM | B19 |
| 51 nM | B20 |

| Kd | Binder |
| --- | --- |
| 49 nM | B21 |
| 20 nM | B22 |
| 230 nM | B23 |
| 310 nM | B24 |
| 46 nM | B25 |
| 5.9 nM | B26 |
| 37 nM | B27 |
| 49 nM | B28 |
| 15 nM | B29 |
| 310 nM | B30 |
| 850 nM | B31 |
| 47 nM | B32 |
| 31 nM | B33 |
| 51 nM | B34 |
| 53 nM | B35 |
| 680 nM | B36 |
| 74 nM | B37 |
| 23 nM | B38 |
| 65 nM | B39 |
| 32 nM | B40 |

| Kd | Binder |
| --- | --- |
| 280 nM | B41 |
| 350 nM | B42 |
| 230 nM | B43 |
| 18 nM | B44 |
| 82 nM | B45 |
| 17 nM | B46 |
| 60 nM | B47 |
| 28 nM | B48 |
| 22 nM | B49 |
| 24 nM | B50 |
| 270 nM | B51 |
| 320 nM | B52 |
| 15 nM | B53 |
| 600 nM | B54 |
| 42 nM | B55 |
| 33 nM | B56 |
| 260 nM | B57 |
| 310 nM | B58 |
| 280 nM | B59 |
| 44 nM | B60 |
